Source: patent US20230242653A1 (TENEOBIO, published 2023)

B1: IL2RB_F09G**IL2RG_F16B (bispecific antibody, human IgG4, V domains shown)
V domain 1: QVQLQESGPGLVKSSETLSLTCTVSGGSISSSDWWSWVRQPPGKGLEWIGEIDHSGSTNYNPSLMSRVTISVDKSKNQFSLKLSSVTAADTAVYFCARGSWELTDAFDIRGQGTLVTVSS
V domain 2: QVQLVESGGGLVKPGGSLRLSCAASGFTFSDYYMSWIRQAPGKGLEWVSYISSSGSTIYYADSVKGRFTISRDNAKNSLYLQMNSLRAEDTAVYYCARGDAVSITGDYRGQGTLVTVSS
notes: Bispecific heavy chain-only UniAb on silenced, stabilized human IgG4 Fc without CH1, knobs-into-holes; also called BsAb-2; not shown: C-terminal His-tag on the knob chain
B2: IL2RB_F09C**IL2RG_F16A (bispecific antibody, human IgG4, V domains shown)
V domain 1: QVQLQESGPGLVKPSGTLSLTCAVSGGSISSSDWWSWVRQPPGKGLEWIGEIDHSGSTNYNPSLMSRVTISVDKSKNQFSLKLSSVTAADTAVYFCGRGSWELSDAFDIRGQGTLVTVSS
V domain 2: QVQLVESGGGLVKPGGSLRLSCAASGFTFSDYYMSWIRQAPGKGLEWVSSISSSGDTIYYADSVQGRFTLSRDNAENSLFLQMNSLRAEDTAVYYCARGDAVSITGDYRGQGTLVTVSS
notes: Bispecific heavy chain-only UniAb on silenced, stabilized human IgG4 Fc without CH1, knobs-into-holes; also called BsAb-1; not shown: C-terminal His-tag on the knob chain
B3: IL2RB_F09G**IL2RG_F16C (bispecific antibody, human IgG4, V domains shown)
V domain 1: QVQLQESGPGLVKSSETLSLTCTVSGGSISSSDWWSWVRQPPGKGLEWIGEIDHSGSTNYNPSLMSRVTISVDKSKNQFSLKLSSVTAADTAVYFCARGSWELTDAFDIRGQGTLVTVSS
V domain 2: QVQLVESGGGLVKPGGSLRLSCAASGFTFNDYYMSWIRQAPGKGLEWVSHISSSGSTIYYADSVKGRFTVSRDNANNSLYLQMHSLRAEDTAVYYCARGDAVSITGDYRGQGTLVTVSS
notes: Bispecific heavy chain-only UniAb on silenced, stabilized human IgG4 Fc without CH1, knobs-into-holes; also called BsAb-3; not shown: C-terminal His-tag on the knob chain
B4: IL2RB_F09K**IL2RG_F16B (bispecific antibody, human IgG4, V domains shown)
V domain 1: QVQLQESSPGLVKPSETLSLTCTVSGGSISSSNWWSWVRQPPGKGLEWIGEISHSGSTNYNPSLKSRVTISVDKSKNQFSLRLSSVTAADTAVYFCGRGSWELTDAFDIRGQGTLVTVSS
V domain 2: QVQLVESGGGLVKPGGSLRLSCAASGFTFSDYYMSWIRQAPGKGLEWVSYISSSGSTIYYADSVKGRFTISRDNAKNSLYLQMNSLRAEDTAVYYCARGDAVSITGDYRGQGTLVTVSS
notes: Bispecific heavy chain-only UniAb on silenced, stabilized human IgG4 Fc without CH1, knobs-into-holes; also called BsAb-5; not shown: C-terminal His-tag on the knob chain
B5: IL2RB_F09G**IL2RG_F18A (bispecific antibody, human IgG4, V domains shown)
V domain 1: QVQLQESGPGLVKSSETLSLTCTVSGGSISSSDWWSWVRQPPGKGLEWIGEIDHSGSTNYNPSLMSRVTISVDKSKNQFSLKLSSVTAADTAVYFCARGSWELTDAFDIRGQGTLVTVSS
V domain 2: QVQLVESGGDLVKPGGSLRLSCAASGFTFSDYYMSWLRQAPGKELEWVSHISSSGTTTYYADSVEGRFTITRDNAKNSLYLQMNSLRAEDTAVYYCARGAAVAPGFDSRGQGTLVTVSS
notes: Bispecific heavy chain-only UniAb on silenced, stabilized human IgG4 Fc without CH1, knobs-into-holes; also called BsAb-4; not shown: C-terminal His-tag on the knob chain
B6: IL2RB_F18E**IL2RG_F16A (bispecific antibody, human IgG4, V domains shown)
V domain 1: QVQLVESGGGVVQPGRSLRLSCAASGFTFSSYGMHWVRQAPGKEREWVAVISYDGSNKYYTDSVKGRFTISRDNSKNTLYLEMNSLRAEDTAVYYCARDLDYDVLTGDPVGGFDIWGQGTLVTVSS
V domain 2: QVQLVESGGGLVKPGGSLRLSCAASGFTFSDYYMSWIRQAPGKGLEWVSSISSSGDTIYYADSVQGRFTLSRDNAENSLFLQMNSLRAEDTAVYYCARGDAVSITGDYRGQGTLVTVSS
notes: Bispecific heavy chain-only UniAb on silenced, stabilized human IgG4 Fc without CH1, knobs-into-holes; also called BsAb-6; not shown: C-terminal His-tag on the knob chain

Columns and labels:
[1] = molecular target: T1, human IL-2Rα (Sino Biological) (human, UniProt P01589 22-213, limits assumed); experiment: Octet BLI off-rate analysis, antibody on AHC sensors
T1 construct: also called IL2RA; IL-2RA
T1 sequence: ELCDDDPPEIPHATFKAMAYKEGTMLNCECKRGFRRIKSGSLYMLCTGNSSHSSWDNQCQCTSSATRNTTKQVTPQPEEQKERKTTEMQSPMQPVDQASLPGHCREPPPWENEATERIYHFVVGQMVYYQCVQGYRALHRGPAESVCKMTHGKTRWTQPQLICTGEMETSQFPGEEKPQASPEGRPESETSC
Procedure: (§1) All off-rate measurements were performed on an Octet Qk384 instrument (ForteBio), in 96-well microplates at 25° C. using anti-human IgG Fc capture (AHC, 18-5005) sensors with a shake speed of 1000 rpm. For off-rate determination, the antibodies were loaded on the AHC sensors at 5 µg/mL. Following a short baseline in kinetics buffer (0.02% Tween20, 0.1% BSA, 0.05% sodium azide, 1X PBS). Offrate measurements were done for the following: human IL-2Rβ (AcroBiosystems), human IL- 2Ry (Sino Biological), cynomolgus IL-2Rβ (Sino Biological), cynomolgus IL-2Rγ (expressed and purified in house using ExpiCHO expression system followed by Ni-NTA His-tag purification), mouse IL-2Rγ (Sino Biological), mouse IL-2Rβ (Sino Biological), human IL-2Rα (Sino Biological), IL-4R (Sino Biological), IL-7R (Sino Biological), IL-9R (R&D Systems) and IL-21R (Sino Biological). The following antibodies were used as positive controls to verify target binding and reagent quality: anti-human IL-9R (R&D Systems), anti-human IL-21R (R&D Systems), anti-human IL-7R (R&D Systems) and anti-human IL-4Ra (R&D Systems). The loaded sensors were then submerged in wells containing antigen at 100 nM concentration for association step. Dissociation was monitored in kinetics buffer. The capture surfaces were regenerated for 60 s. ForteBio data analysis software was used to fit the data to a 1:1 binding model to extract an association rate and dissociation rate.

[2] = molecular target: T2, IL-7R (Sino Biological) (UniProt P16871 21-239); experiment: as above
T2 sequence (looked up): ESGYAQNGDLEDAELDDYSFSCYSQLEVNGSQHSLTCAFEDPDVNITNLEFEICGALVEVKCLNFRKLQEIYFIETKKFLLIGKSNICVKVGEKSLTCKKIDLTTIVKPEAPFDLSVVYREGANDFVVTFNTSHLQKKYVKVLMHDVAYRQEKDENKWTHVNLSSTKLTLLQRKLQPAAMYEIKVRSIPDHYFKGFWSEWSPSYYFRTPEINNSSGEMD
Procedure: as §1

[3] = molecular target: T3, IL-4R (Sino Biological) (UniProt P24394 26-232); experiment: as above
T3 construct: also called IL-4Ra
T3 sequence (looked up): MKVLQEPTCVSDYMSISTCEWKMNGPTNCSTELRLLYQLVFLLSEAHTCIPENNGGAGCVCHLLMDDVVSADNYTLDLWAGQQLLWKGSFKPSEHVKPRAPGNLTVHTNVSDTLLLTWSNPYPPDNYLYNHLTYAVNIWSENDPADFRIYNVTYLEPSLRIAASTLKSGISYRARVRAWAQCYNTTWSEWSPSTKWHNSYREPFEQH
Procedure: as §1

[4] = molecular target: IL-21R (Sino Biological) (UniProt Q9HBE5 20-232); experiment: as above
IL-21R (Sino Biological), sequence (Q9HBE5 20-232 limits assumed): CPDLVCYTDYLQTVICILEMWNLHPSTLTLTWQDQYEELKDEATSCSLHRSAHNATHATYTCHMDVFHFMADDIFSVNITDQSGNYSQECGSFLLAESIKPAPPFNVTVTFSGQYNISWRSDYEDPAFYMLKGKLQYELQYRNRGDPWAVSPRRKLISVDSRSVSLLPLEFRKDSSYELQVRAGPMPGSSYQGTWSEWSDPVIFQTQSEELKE
Procedure: as §1

[5] = molecular target: T4, IL-9R (R&D Systems) (UniProt Q01113 41-270, limits assumed); experiment: as above
T4 sequence (looked up): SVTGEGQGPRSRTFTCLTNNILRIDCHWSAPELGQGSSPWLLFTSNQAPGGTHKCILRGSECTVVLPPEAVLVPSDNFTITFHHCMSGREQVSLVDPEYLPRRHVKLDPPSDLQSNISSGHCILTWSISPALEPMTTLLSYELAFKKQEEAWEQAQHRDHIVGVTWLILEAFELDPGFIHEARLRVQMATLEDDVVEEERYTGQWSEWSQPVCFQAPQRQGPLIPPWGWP
Procedure: as §1

[6] = molecular target: T5, human IL-2Rβγ receptor (IL-2RB / IL-2RG) on human T-cells (human, UniProt P14784 27-551; P31785 23-369); experiment: flow cytometry, human CD4+ T-cells, anti-human IgG-PE detection, gMFI as fold over secondary-only background
T5 construct: also called IL2RB/IL2RG dimeric receptor complex
T5 sequence 1: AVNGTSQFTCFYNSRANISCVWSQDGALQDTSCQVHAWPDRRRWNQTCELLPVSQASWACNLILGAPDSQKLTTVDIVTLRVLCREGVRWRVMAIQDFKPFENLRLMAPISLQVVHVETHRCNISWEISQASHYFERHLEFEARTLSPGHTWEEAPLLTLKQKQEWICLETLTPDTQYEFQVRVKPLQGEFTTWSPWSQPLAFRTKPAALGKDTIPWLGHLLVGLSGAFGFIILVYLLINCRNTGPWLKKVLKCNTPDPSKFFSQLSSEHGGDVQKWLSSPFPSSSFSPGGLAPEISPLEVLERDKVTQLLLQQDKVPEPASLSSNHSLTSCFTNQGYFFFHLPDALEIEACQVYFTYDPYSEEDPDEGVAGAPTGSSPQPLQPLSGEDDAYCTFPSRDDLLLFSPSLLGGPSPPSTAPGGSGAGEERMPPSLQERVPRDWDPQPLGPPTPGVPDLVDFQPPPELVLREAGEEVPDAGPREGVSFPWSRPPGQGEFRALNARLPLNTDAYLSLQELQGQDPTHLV
T5 sequence 2: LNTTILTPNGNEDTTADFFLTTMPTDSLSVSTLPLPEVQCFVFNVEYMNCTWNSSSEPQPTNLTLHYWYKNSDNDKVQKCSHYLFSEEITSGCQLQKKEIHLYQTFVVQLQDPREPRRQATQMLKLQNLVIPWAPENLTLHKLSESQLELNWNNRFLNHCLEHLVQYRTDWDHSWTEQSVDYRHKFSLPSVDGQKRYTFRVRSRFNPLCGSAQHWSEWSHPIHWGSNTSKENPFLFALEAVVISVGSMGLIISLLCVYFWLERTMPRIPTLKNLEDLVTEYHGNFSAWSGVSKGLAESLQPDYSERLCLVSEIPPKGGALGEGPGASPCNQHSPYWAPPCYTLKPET
Procedure: (§2) All washes and dilutions of cells, antibodies, and reagents were performed using flow buffer (1X PBS, 1% BSA, 0.1% NaN3, pH 7.4). Staining was performed in a round-bottom 96-well plate (Corning) seeded at 100,000 cells/well and all incubations were performed at 4° C. or on ice. […] The cells were washed twice with 200 µL flow buffer. The cells were then incubated for 30 minutes with detection antibody (Goat F(ab′)2 Anti-Human IgG-PE, Southern Biotech) at 0.625 µg/mL in flow buffer. Following 2 more washes, the cells were resuspended in a final volume of 150 µL of flow buffer. The cells were analyzed on a BD FACSCelesta or a Guava easyCyte 8-HT flow cytometer. At least 3000 events were collected, and PE geometric mean fluorescence intensity was plotted as a fold over background (cells incubated with secondary detection antibody only). In some secondary screens involving human or cynomolgus PBMCs, an additional CD4 antibody (BioLegend) and/or CD8 antibody (BioLegend) was included to further characterize cell binding.

[7] = molecular target: T5, human IL-2Rβγ receptor (IL-2RB / …); experiment: flow cytometry, human CD8+ T-cells, anti-human IgG-PE detection, gMFI as fold over secondary-only background
Procedure: as §2

[8] = molecular target: cynomolgus IL-2Rβγ receptor (IL-2RB / IL-2RG) on cynomolgus T-cells (cynomolgus, UniProt Q38J85 27-551); experiment: flow cytometry, cynomolgus CD8+ T-cells, anti-human IgG-PE detection, gMFI as fold over secondary-only background
cynomolgus IL-2Rβγ receptor (IL-2RB / IL-2RG) on cynomolgus T-cells, sequence (Q38J85 27-551): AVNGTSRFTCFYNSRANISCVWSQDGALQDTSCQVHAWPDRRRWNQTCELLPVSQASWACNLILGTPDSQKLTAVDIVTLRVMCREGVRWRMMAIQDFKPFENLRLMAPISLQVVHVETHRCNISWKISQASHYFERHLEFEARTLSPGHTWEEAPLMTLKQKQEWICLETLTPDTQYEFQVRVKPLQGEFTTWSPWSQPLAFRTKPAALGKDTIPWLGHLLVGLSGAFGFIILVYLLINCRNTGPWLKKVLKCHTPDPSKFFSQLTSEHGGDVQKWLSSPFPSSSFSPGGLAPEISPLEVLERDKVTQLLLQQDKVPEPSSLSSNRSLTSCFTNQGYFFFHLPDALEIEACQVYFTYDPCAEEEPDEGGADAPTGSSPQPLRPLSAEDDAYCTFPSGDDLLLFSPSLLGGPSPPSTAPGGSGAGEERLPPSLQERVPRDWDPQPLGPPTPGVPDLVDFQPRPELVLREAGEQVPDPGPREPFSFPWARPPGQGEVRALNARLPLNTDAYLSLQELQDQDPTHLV
Procedure: as §2

| Binder | binding result [1] | binding result [2] | binding result [3] | binding result [4] | binding result [5] | EC50 (read off the curve) [6] [nM] | EC50 (read off the curve) [7] [nM] | EC50 (read off the curve) [8] [nM] |
| --- | --- | --- | --- | --- | --- | --- | --- | --- |
| B1 | no binding (tested: 100 nM antigen) | no binding (tested: 100 nM antigen) | no binding (tested: 100 nM antigen) | no binding (tested: 100 nM antigen) | no binding (tested: 100 nM antigen) | ~5 |  |  |
| B2 | no binding (tested: 100 nM antigen) | no binding (tested: 100 nM antigen) | no binding (tested: 100 nM antigen) | no binding (tested: 100 nM antigen) | no binding (tested: 100 nM antigen) | ~5 |  |  |
| B3 | no binding (tested: 100 nM antigen) | no binding (tested: 100 nM antigen) | no binding (tested: 100 nM antigen) | no binding (tested: 100 nM antigen) | no binding (tested: 100 nM antigen) | ~6 | ~6 |  |
| B4 | no binding (tested: 100 nM antigen) | no binding (tested: 100 nM antigen) | no binding (tested: 100 nM antigen) | no binding (tested: 100 nM antigen) | no binding (tested: 100 nM antigen) |  |  | ~5 |
| B5 | no binding (tested: 100 nM antigen) | no binding (tested: 100 nM antigen) | no binding (tested: 100 nM antigen) | no binding (tested: 100 nM antigen) | no binding (tested: 100 nM antigen) |  |  |  |
| B6 | no binding (tested: 100 nM antigen) | no binding (tested: 100 nM antigen) | no binding (tested: 100 nM antigen) | no binding (tested: 100 nM antigen) | no binding (tested: 100 nM antigen) |  |  |  |
